This note sets out measurements from article PMC13351892, “Tool antibody fragments reveal multiple conformations of the rhodopsin-Gi signaling complex” (Biophysical Journal, 2025).

For this test, the target named is T1, human Gαi1 (human, UniProt P63096).
T1 construct: also called Gαi subunit; source: prepared as described (11)
In words: cryo-EM structure; Rho-Gαiβγ-scFv16-Fab79, mixed 1:1.4:1.4 in 0.02% LMNG, purified by SEC; two conformations at 5.2 and 5.9 Å. To be noted: both partners purified.

T1 sequence (P63096 whole entry): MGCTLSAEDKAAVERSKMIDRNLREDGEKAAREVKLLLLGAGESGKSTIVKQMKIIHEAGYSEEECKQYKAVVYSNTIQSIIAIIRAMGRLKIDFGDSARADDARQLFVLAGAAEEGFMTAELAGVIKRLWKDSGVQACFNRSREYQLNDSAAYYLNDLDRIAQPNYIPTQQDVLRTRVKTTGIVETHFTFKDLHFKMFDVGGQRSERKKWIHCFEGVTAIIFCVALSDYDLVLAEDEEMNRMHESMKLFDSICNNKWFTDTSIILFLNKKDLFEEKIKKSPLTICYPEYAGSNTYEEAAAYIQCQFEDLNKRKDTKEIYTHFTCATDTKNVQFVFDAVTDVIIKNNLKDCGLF

B1: Fab79 (Fab, V domains shown)
VH: EVQLVESGGGLVKPGGSLKLSCAASGFTFSSYAMSWVRQTPEKRLEWVATISSRGLYTYFPDSMKGRFTISRDNAKNTLSLQMSSLRSEDTAMYYCLRGGGYDADYWGQGTTLTVSS
VL: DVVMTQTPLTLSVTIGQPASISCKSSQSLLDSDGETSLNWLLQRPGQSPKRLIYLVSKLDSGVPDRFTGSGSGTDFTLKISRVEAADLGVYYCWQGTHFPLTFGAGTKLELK
notes: Fab79 heavy chain; also in the deposited models PDB 8P13 and 8P15; Fab79 light chain; source: prepared as described (11); from mice immunized with the purified Rho-Gαiβγ complex
As to B1, the binding result is “binds”.
